PMC7498317, “GapR binds DNA through dynamic opening of its tetrameric interface” (Nucleic Acids Research, 2020)
Numbering of substitutions follows the chain as printed.

Experiments:
[1] = molecular target: the molecule itself; assay: SEC-MALS; Superdex-75 HR 10/30, 50 mM sodium phosphate pH 7.0, 150 mM NaCl, 25°C; free GapR 0.5, 1.0 and 2.0 mg/mL, GapR^ΔC17 2.0 mg/ml; self-association
[2] = molecular target: the molecule itself; assay: SEC; Superdex 75, 50 mM sodium phosphate pH 7.0, 150 mM NaCl; apparent molecular weight from the elution volume; self-association
[3] = molecular target: the molecule itself; assay: cross-linking; 0.1 mM protein, EGS 0.5 and 1 mM, 50 mM sodium phosphate, 150 mM NaCl, pH 7.2, room temperature, 10 min; self-association
[4] = molecular target: T1, GapR G87A (Caulobacter crescentus, UniProt B8H4R9 1-89, G87A); assay: NMR (1H-15N HSQC titration); minor peaks disappear on DNA addition; ITC: 50 mM sodium phosphate pH 7.0, 200 mM NaCl, 4 C; 25 uM GapR tetramer in cell, 0.25 mM DNA injected; NMR: 0.1 mM tetramer, 0.02-0.1 mM DNA; details: protein: recombinant; tags: C-terminal His6 (pET-21a); chain copies: 4; blunt
T1 sequence: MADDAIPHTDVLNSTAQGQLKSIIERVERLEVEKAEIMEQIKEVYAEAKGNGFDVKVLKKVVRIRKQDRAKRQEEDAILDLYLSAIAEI

[5] = molecular target: T2, GapR (Caulobacter crescentus, UniProt B8H4R9 1-89); assay: ITC; ITC: 50 mM sodium phosphate pH 7.0, 200 mM NaCl, 4 C; 25 uM GapR tetramer in cell, 0.25 mM DNA injected; NMR: 0.1 mM tetramer, 0.02-0.1 mM DNA; details: protein: recombinant, tags: C-terminal His6 (pET-21a), chain copies: 4, blunt
T2 sequence: T1 sequence with A87G

[6] = molecular target: T2, GapR; assay: ITC; netropsin-bound DNA; ITC: 50 mM sodium phosphate pH 7.0, 200 mM NaCl, 4 C; 25 uM GapR tetramer in cell, 0.25 mM DNA injected; NMR: 0.1 mM tetramer, 0.02-0.1 mM DNA; details: protein: recombinant; tags: C-terminal His6 (pET-21a); chain copies: 4; blunt

B1: GapR^ΔC17 (residues 1-72) (domain or fragment, C. crescentus, UniProt B8H4R9 1-72, looked up)
chain: MADDAIPHTDVLNSTAQGQLKSIIERVERLEVEKAEIMEQIKEVYAEAKGNGFDVKVLKKVVRIRKQDRAKR
notes: GapR of Caulobacter crescentus, gene CCNA_03428, residues 1-72; theoretical dimer mass 18.6 kDa as printed; also called C-terminal truncation mutant; source: E. coli Rosetta (DE3), purified (Ni-NTA, size-exclusion chromatography)
stoichiometry N [1]: 2

B2: GapR^ΔC8 (residues 1-81) (domain or fragment, C. crescentus, UniProt B8H4R9 1-81, looked up)
chain: MADDAIPHTDVLNSTAQGQLKSIIERVERLEVEKAEIMEQIKEVYAEAKGNGFDVKVLKKVVRIRKQDRAKRQEEDAILDL
notes: GapR of Caulobacter crescentus, gene CCNA_03428, residues 1-81; also called C-terminal truncation mutant; source: E. coli Rosetta (DE3), purified (Ni-NTA, size-exclusion chromatography)
stoichiometry N [2]: 2

B3: GapR (growth-associated A/T-binding protein involved in regulation), full length, residues 1-89 (natural protein, C. crescentus, UniProt B8H4R9 1-89, looked up)
chain: T1 sequence with A87G
notes: GapR of Caulobacter crescentus, gene CCNA_03428, residues 1-89 (full length); theoretical monomer mass 11.2 kDa as printed; A selenomethionyl derivative was used for MAD phasing of the GapR/10A complex structure; 15N- or 13C-labelled for NMR; also called free GapR; full-length GapR; source: E. coli Rosetta (DE3), purified (Ni-NTA, size-exclusion chromatography on Superdex 75)
stoichiometry N [3]: 4

B4: GapR^ΔN10 (residues 11-89) (domain or fragment, C. crescentus, UniProt B8H4R9 11-89, looked up)
chain: VLNSTAQGQLKSIIERVERLEVEKAEIMEQIKEVYAEAKGNGFDVKVLKKVVRIRKQDRAKRQEEDAILDLYLSAIGEI
notes: GapR of Caulobacter crescentus, gene CCNA_03428, residues 11-89; pET-28a(+) with a thrombin-cleavable N-terminal His6-tag; the tag was removed by thrombin; also called N-terminal truncation mutant; source: E. coli Rosetta (DE3), purified (Ni-NTA, thrombin cleavage, size-exclusion chromatography); not shown: His6, N-terminal, cleaved
binding result [2]: binds

B5: 10A (dsDNA)
DNA 1: CCGAAAAAAAAAACGC
DNA 2: GCGTTTTTTTTTTCGG
binding result [4]: binds
Kd [5]: 11.6 ± 2.5 nM

B6: 11AT (dsDNA)
DNA 1: TTAAAATTAAA
DNA 2: TTTAATTTTAA
Kd [5]: 12.3 ± 4.5 nM

B7: 5ApT (dsDNA)
DNA 1: CCGATATATATATCGC
DNA 2: GCGATATATATATCGG
Kd [5]: 12.3 ± 8.9 nM
Kd [6]: 16.6 ± 4.5 nM

B8: seq1 (dsDNA)
DNA 1: GCGAAATTGATCG
DNA 2: CGATCAATTTCGC
Kd [5]: 72 ± 24 nM

B9: seq2 (dsDNA)
DNA 1: CGTGTTTTCGG
DNA 2: CCGAAAACACG
Kd [5]: 72 ± 19 nM

B10: 6CpG (dsDNA)
DNA 1: CGCGCGCGCGCG
DNA 2: CGCGCGCGCGCG
Kd ([5]; self-complementary): 118 ± 17 nM
